Assay results from US20230059181A1.

Target: Human CD64 (FcγRI), His-tagged (human) (UniProt P12314)
Experiment: SPR single cycle kinetics, 1:1 model, His-CD64 captured, antibody as analyte

Human CD64 (FcγRI), His-tagged (human), sequence (P12314 16-288 limits assumed): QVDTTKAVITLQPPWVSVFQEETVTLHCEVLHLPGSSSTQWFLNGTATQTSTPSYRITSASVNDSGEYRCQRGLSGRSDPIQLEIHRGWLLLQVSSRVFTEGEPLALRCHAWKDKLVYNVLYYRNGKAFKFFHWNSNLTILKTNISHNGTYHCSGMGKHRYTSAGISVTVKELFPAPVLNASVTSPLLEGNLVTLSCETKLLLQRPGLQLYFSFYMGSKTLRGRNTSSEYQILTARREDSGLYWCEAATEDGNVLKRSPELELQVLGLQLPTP

Irrelevant IgG4 (antibody)
Kd: 5.97 nM
koff: 0.00249 s⁻¹
kon: 417000 M⁻¹ s⁻¹

Irrelevant IgG1 (antibody)
Kd: 2.61 nM
koff: 0.00083 s⁻¹
kon: 319000 M⁻¹ s⁻¹
